# T1: human EMR2 (ADGRE2, CD312) on cells (human, UniProt Q9UHX3 24-823)
# T1 sequence: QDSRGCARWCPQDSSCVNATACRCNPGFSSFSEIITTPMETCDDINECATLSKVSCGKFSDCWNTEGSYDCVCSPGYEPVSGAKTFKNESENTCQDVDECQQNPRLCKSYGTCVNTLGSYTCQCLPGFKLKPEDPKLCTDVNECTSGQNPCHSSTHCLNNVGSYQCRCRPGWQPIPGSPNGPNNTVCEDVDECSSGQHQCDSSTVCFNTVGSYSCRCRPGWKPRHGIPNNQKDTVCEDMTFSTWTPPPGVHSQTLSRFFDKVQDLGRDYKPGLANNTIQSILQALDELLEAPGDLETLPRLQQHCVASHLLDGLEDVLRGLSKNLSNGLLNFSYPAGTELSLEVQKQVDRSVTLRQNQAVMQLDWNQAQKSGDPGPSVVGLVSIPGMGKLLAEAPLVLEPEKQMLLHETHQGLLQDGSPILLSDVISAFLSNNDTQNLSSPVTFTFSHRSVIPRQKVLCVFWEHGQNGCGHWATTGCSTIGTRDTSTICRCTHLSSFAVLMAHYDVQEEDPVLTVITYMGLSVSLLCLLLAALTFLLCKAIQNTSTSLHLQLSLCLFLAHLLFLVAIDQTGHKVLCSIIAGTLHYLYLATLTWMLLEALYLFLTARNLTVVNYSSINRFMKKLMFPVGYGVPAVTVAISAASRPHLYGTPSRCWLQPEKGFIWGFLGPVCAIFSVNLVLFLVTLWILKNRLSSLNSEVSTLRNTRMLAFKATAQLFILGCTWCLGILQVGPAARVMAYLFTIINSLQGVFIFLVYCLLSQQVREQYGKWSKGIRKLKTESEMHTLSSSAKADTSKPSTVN
# T2: EMR2W4, huEMR2 GAIN domain + GPS, D261-T540, with C-terminal Avi/6x His tag (human)
# T2 construct: also called Human EMR2 GAIN domain protein
# T2 chain: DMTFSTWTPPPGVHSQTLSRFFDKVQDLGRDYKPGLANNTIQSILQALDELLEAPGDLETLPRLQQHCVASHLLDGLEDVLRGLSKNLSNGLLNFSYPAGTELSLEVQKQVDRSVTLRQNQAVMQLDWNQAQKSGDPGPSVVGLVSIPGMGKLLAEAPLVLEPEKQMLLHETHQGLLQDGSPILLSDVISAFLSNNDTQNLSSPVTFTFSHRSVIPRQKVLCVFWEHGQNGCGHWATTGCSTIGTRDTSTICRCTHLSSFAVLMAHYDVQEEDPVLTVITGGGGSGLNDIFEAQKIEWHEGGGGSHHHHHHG
# B1: EMVBB8 (EMR2 x TRBV19 bispecific antibody) (bispecific antibody, human IgG1, kappa, L234A L235A)
# heavy 1: DIQMTQSPSSLSASVGDRVTITCRSSQSLVHSNRNTYLHWYQQKPGCAPKLLIYKVSNRFSGVPSRFSGSGSGTDFTLTISSLQPEDFATYYCSQSTHVPFTFGQGTKLEIKGGGSGGSGGCPPCGGSGGQVQLQESGPGLVKPSETLSLTCTVSGYSITSGYFWNWIRQFPGKGLEWMGYISYDGSNNYNPSLKSRITISRDTSKNQFSLKLSSVTAADTAVYYCASPSPGTGYAVDYWGCGTTVTVSSEPKSSDKTHTCPPCPAPEAAGGPSVFLFPPKPKDTLMISRTPEVTCVVVSVSHEDPEVKFNWYVDGVEVHNAKTKPREEQYNSTYRVVSVLTVLHQDWLNGKEYKCKVSNKALPAPIEKTISKAKGQPREPQVYTLPPSREEMTKNQVSLWCLVKGFYPSDIAVEWESNGQPENNYKTTPPVLDSDGSFFLYSKLTVDKSRWQQGNVFSCSVMHEALHNHYTQKSLSLSPGK
# heavy 2: EVQLVESGGGLVQPGGSLRLSCTASGFTFSRYSMNWVRQAPGEGLEWVSYISSSSNTIYYADSVKGRFTISRDNAKNSLYLQMNSLRDEDTAVYYCARDQGTPFDYWGQGTLVTVSSASTKGPSVFPLAPSSKSTSGGTAALGCLVKDYFPEPVTVSWNSGALTSGVHTFPAVLQSSGLYSLSSVVTVPSSSLGTQTYICNVNHKPSNTKVDKKVEPKSCDKTHTCPPCPAPEAAGGPSVFLFPPKPKDTLMISRTPEVTCVVVSVSHEDPEVKFNWYVDGVEVHNAKTKPREEQYNSTYRVVSVLTVLHQDWLNGKEYKCKVSNKALPAPIEKTISKAKGQPREPQVYTLPPSREEMTKNQVSLSCAVKGFYPSDIAVEWESNGQPENNYKTTPPVLDSDGSFFLVSKLTVDKSRWQQGNVFSCSVMHEALHNRFTQKSLSLSPGK
# light: EIVLTQSPSSVSASIGDRVTITCRASQDISSWLGWYQQKPGKAPKLLIYAAISLQSGVPSRFSGSESGTDFTLTISSLQPEDFATYYCHQANSFPLTFGGGTKVEIKRTVAAPSVFIFPPSDEQLKSGTASVVCLLNNFYPREAKVQWKVDNALQSGNSQESVTEQDSKDSTYSLSSTLTLSKADYEKHKVYACEVTHQGLSSPVTKSFNRGEC
# notes: also called the bispecific antibody
# Key:
# [1] = molecular target: T1, human EMR2 (ADGRE2, CD312) on cells; assay: cell-based or functional assay
# [2] = molecular target: T1, human EMR2 (ADGRE2, CD312) on cells; assay: cell-based or functional assay; remark: listed apart in the source
# [3] = molecular target: T3, T-cell receptor with TRBV19 (Vβ17) beta chain on human T cells (human); assay: cell-based or functional assay
# [4] = molecular target: T4, FcRn (cyno) (cynomolgus monkey, UniProt Q8SPV9 24-297; Q8SPW0 21-119); assay: FcRn binding (cyno, pH 6)
# T4 construct: also called neonatal Fc receptor, cynomolgus monkey
# [5] = molecular target: T2, EMR2W4, huEMR2 GAIN domain + GPS, …; assay: SPR, EMR2 arm, forced degradation study: pH 5.0
# [6] = molecular target: T2, EMR2W4, huEMR2 GAIN domain + GPS, …; assay: SPR, EMR2 arm, forced degradation study: pH 8.5
# [7] = molecular target: T2, EMR2W4, huEMR2 GAIN domain + GPS, …; assay: SPR, EMR2 arm, forced degradation study: Thermal
# [8] = molecular target: T2, EMR2W4, huEMR2 GAIN domain + GPS, …; assay: SPR, EMR2 arm, forced degradation study: chemical oxidation
# [9] = molecular target: T1, human EMR2 (ADGRE2, CD312) on cells; assay: flow cytometry, OCI-AML2 cells, 1 hour at 37 °C; mean ± SEM
# Experimental: (§1) After secondary detection with AF647-labeled material, the MFI signal was analyzed to generate an EC50 value. Curves are representative of 3 independent experiments.
# [10] = molecular target: T1, human EMR2 (ADGRE2, CD312) on cells; assay: flow cytometry, OCI-AML5 cells, 1 hour at 37 °C; mean ± SEM
# Experimental: as §1
# [11] = molecular target: T3, T-cell receptor with TRBV19 (Vβ17) beta …; assay: flow cytometry, percent TRBV19+ of live pan-T cells, Donor 1, 1 hour, 37 °C
# [12] = molecular target: T3, T-cell receptor with TRBV19 (Vβ17) beta …; assay: flow cytometry, percent TRBV19+ of live pan-T cells, Donor 3, 1 hour, 37 °C
# [13] = molecular target: T3, T-cell receptor with TRBV19 (Vβ17) beta …; assay: flow cytometry, percent TRBV19+ of live pan-T cells, Donor 5, 1 hour, 37 °C
# [14] = molecular target: T1, human EMR2 (ADGRE2, CD312) on cells; assay: flow cytometry, median AF647 of live cells, MOLM 13 cells, 1 hour at 37 C
# [15] = molecular target: T1, human EMR2 (ADGRE2, CD312) on cells; assay: flow cytometry, median AF647 of live cells, OCI-AML5 WT cells, 1 hour at 37 C
# [16] = molecular target: T2, EMR2W4, huEMR2 GAIN domain + GPS, …; assay: SPR, row 'SPR (KD) / EMR2' of the Forced Degradation table; first sample batch (in PBS); stress condition of the KD and EMR2 construct not named on the sheet
# T3 sequence (A0A075B6N1 22-114): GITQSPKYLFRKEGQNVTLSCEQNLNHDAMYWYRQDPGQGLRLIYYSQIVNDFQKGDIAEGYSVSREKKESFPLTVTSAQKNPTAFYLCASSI
# T4 sequence (Q8SPV9 24-297 limits assumed, chain 1 of 2): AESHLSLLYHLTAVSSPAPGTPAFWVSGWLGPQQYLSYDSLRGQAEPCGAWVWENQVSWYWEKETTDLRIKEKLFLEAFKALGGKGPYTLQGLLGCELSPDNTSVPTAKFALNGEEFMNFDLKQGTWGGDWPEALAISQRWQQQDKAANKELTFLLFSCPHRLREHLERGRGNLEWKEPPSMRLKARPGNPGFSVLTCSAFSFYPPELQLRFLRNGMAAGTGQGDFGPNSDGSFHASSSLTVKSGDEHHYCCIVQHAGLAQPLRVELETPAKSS
# T4 sequence (Q8SPW0 21-119 limits assumed, chain 2 of 2): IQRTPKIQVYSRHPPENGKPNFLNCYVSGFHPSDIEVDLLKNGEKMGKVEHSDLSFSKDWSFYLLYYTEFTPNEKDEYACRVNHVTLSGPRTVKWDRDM
binder,measurement,setting,value
B1,"Cytotoxicity, EC50 (nM), 24 hours, PBMC + OCI-AML3",[1],0.02 nM
same,"Cytotoxicity, EC50 (nM), 48 hours, PBMC + OCI-AML3",[1],0.01 nM
same,"Cytotoxicity, EC50 (nM), 72 hours, PBMC + OCI-AML3",[1],0.004 nM
same,"Cytotoxicity, EC50 (nM), 96 hours, PBMC + OCI-AML3",[1],0.003 nM
same,"Cytotoxicity, EC50 (nM), 120 hours, PBMC + OCI-AML3",[1],0.004 nM
same,"Cytotoxicity, EC50 (nM), 24 hours, PBMC + OCI-AML3 (Table 10)",[2],0.02 nM
same,"Cytotoxicity, EC50 (nM), 48 hours, PBMC + OCI-AML3 (Table 10)",[2],0.01 nM
same,"Cytotoxicity, EC50 (nM), 72 hours, PBMC + OCI-AML3 (Table 10)",[2],0.004 nM
same,"Cytotoxicity, EC50 (nM), 96 hours, PBMC + OCI-AML3 (Table 10)",[2],0.003 nM
same,"Cytotoxicity, EC50 (nM), 120 hours, PBMC + OCI-AML3 (Table 10)",[2],0.004 nM
same,"Pan-T-cell activation (CD25), EC50 (nM), 24 hours, PBMC + OCI-AML3 (Table 10)",[3],0.02 nM
same,"Pan-T-cell activation (CD25), EC50 (nM), 48 hours, PBMC + OCI-AML3 (Table 10)",[3],0.01 nM
same,"Pan-T-cell activation (CD25), EC50 (nM), 72 hours, PBMC + OCI-AML3 (Table 10)",[3],0.01 nM
same,"Pan-T-cell activation (CD25), EC50 (nM), 96 hours, PBMC + OCI-AML3 (Table 10)",[3],0.01 nM
same,"Pan-T-cell activation (CD25), EC50 (nM), 120 hours, PBMC + OCI-AML3 (Table 10)",[3],0.01 nM
same,Kd,[4],454 nM
same,Kd,[5],0.2 nM
same,Kd,[6],0.25 nM
same,Kd,[7],0.22 nM
same,Kd,[8],0.2 nM
same,EC50,[9],55 nM
same,EC50,[10],27 nM
same,EC50,[11],7.8 nM
same,EC50,[12],6.2 nM
same,EC50,[13],9.5 nM
same,EC50,[14],16.4 nM
same,Max (MFI),[14],400000 MFI
same,EC50,[15],13.4 nM
same,Max (MFI),[15],260000 MFI
same,Kd,[16],0.154 nM
